The text below walks through data of patent US20210380678A1 (SURROZEN OPERATING, published 2021).

Test [1] deals with T1, human ASGR1 extracellular domain (hASGR1 ECD) (human, UniProt P07306 62-291, biotinylated (His-Avi tag)).
T1 construct: His-Avi tag at the N-terminus, biotinylated for BLI; also called human ASGR1 ECD
T1 sequence: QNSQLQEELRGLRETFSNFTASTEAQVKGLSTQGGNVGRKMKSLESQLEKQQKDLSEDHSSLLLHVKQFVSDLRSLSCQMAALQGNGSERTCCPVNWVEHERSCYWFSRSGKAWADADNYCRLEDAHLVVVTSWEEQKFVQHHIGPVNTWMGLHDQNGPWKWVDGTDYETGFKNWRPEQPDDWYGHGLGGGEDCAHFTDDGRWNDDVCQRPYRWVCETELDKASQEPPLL
Briefly: hybridoma screening on recombinant ECD.

Test [2] deals with T2, cynomolgus ASGR1 extracellular domain (cynoASGR1 ECD) (cynomolgus, UniProt P07306 62-291 (human entry)).
T2 construct: Cloned with a His/Avi tag
T2 chain: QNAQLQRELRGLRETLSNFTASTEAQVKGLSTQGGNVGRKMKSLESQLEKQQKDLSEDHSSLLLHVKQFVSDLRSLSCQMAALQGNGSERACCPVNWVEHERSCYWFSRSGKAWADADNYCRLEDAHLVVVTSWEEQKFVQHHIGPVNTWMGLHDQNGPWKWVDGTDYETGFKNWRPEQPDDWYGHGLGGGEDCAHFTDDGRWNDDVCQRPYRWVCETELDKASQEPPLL
Briefly: hybridoma screening on recombinant ECD.

B1: LP1-7B13 (antibody, V domains shown)
VH: EVQLQQSGPEVVKPGASVKMSCKTSGFTFTDYYMNWVKQGHGKSLEWIGRVNPSNDDTRYNQKFKGKATLTVDKSLSTAYMQLNSLTSEDSAVYYCTRWFYFDYWGQGTTLTVSS
VL: DIVLTQSPATLSVTPGDRVSLSCRASQSISNYLHWYQQKSHESPRLLIKFASQSISGIPSRFSGSGSGTDFTLTINSVETEDFGMYFCQQSNSWPLTFGAGTKLELK
notes: Hybridoma antibody as screened
With B1, the binding result in test [1] and in test [2] was “binds” throughout.

B2: LP1-7I20 (antibody, V domains shown)
VH: EVKLVESGGGLVQPGGSLSLSCAASGFTFTDYYMSWVRQPPGKALEWLALIRNKANGYTTEYSASVKGRFTISRDNSQSILYLQMNALRAEDSATYYCAVTYGAYWGQGTLVTVSA
VL: DIQMTQSPASLSASVGETVTITCRTSENIYSYLAWYQQKQGKSPQLLVYNAKTLAKGVPSRFSGSGSGTQFSLKINGLQPEDFGNYYCQHHYGTPYTFGGGTKVEIK
notes: as for B1
As to B2, the binding result in test [1] and in test [2] was “binds” in each case.

B3: LP1-6H3 (antibody, V domains shown)
VH: QAYLQQSGAELVRPGASVKMSCKASGYTFSRFDMHWVKQTPRQGLEWIGVIYPGNGDTSYNQKFRDKASLTVDKSSSTAYMQLSSLTSEDSAVYFCASSYYGNPWGQGTTLTVSS
VL: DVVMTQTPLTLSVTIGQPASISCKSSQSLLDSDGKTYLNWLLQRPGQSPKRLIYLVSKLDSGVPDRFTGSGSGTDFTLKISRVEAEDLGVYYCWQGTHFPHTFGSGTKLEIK
notes: as for B1
On to B3, for which the binding result in test [1] and in test [2] was “binds” in each case.

B4: LP1-1P5 (antibody, V domains shown)
VH: QVQLQQSGPELVRPGTSVKISCKASGYTFLTYWMNWVKQRPGQGLEWIGQIFPATGITYYSEMFKDKATLTEDTSSTTAYMQLSSLTSEATAVYFCARRRAYHSNFFDYWGQGTTLTVSS
VL: DIVMTQSQKFMSTSVGDRVSVTCKASQNVGTNVAWYQQKPGQSPKALIYSASYRYSGVPDRFTGSGSGTDFTLTISNVQSEDLAEYFCQQYNSYPLTFGAGTKLELK
notes: as for B1
Take B4: the binding result in test [1] and in test [2] was “binds” in each case.

B5: LP1-3A24 (antibody, V domains shown)
VH: EVQLQQSGPELVKPGASVKMSCKASGYTFTDYYINWVRQSHGKSLEWIGRVIPSNGGSNYNQKFKGKATLTVDKSLSTAYMHLNSLTSEDSAVYYCATQLGRWGQGTLVTVSA
VL: DIVMTQSQKFMSTSVGDRVSVTCKASQNVGSNVAWFQQKPGQSPKALIYSSSYRYSGVPDRFTGSGSGTDFTLTITNVQSEDLAEYFCQQYNSFPLTFGAGTKLELK
notes: as for B1
Regarding B5, the binding result in test [1] and in test [2] was “binds” throughout.

B6: LP1-8M24 (antibody, V domains shown)
VH: QVQLQQSGAELARPGASVKLSCKASGYTFTNYGINWVKQRTGQGLEWIGEIFPRSDNTFYNEKFKGKATLTADKSSTTAYMELRSLTSEDSAVYFCARKGRDYGTSHYFDYWGQGTTLTVSS
VL: DIQMTQSPASLSVSVGETVTITCRISENIYSNLAWYQQKQGKSPHLLVYAAINLADGVPSRFSGSGSGTQFSLKINSLQSEDFGSYYCQHFWGTPFTFGSGTKLEIK
notes: as for B1
For B6, the binding result in test [1] and in test [2] was “binds” throughout.

B7: LP1-1F8 (antibody, V domains shown)
VH: EVKLVESGGGLVKPGGSLKLSCAASGFTFSTYTMSWVRQTPAKRLEWVATISSIGVNTYYPDSVKGRFTISRDNARNTLYLQVSSLRSEDTAMYYCARHVDYYDGISFDYWGQGTTLTVSS
VL: DIVMSQSPSSLAVSAGEKVTMSCKSSQSLFNSRTRKNYLAWYQQKPGQSPKLLIYWASTRESGVPDRFTGSGSGTDFTLTISSVQAEDLAVYYCKQSYYLLTFGAGTKLELK
notes: as for B1
On to B7, for which the binding result in test [1] and in test [2] was “binds” each time.

B8: LP1-10C22 (antibody, V domains shown)
VH: EVQLVESGGDLVKPGGSLKLSCAASGFTFSSYGMSWVRQTPDKRLEWVASISSGGSYTYYPDSVKGRFTISRDNAQNTLYLQMSSLKSEDTAMYYCVRHEEYGKSGFAYWGQGTLITVSA
VL: DVLMTQTPLSLPVSLGDQASISCRSSQGIVHSNGNIYLEWYLQKPGQSPKLLIYKVSNRFSGVPDRFSGSGSGTDFTLKISRVEAEDLGVYYCFQGSHVPPTFGGGTKLEIK
notes: as for B1
Take B8: the binding result in test [1] and in test [2] was “binds” each time.

B9: LP1-1N15 (antibody, V domains shown)
VH: EVQLQQSGPELVKPGASVKMSCKASGYTFTDYYMNWVKQSHGESLEWIGRVIPSNGGTNYNQKFKGKATLTVDKSLTTAYMQLNSLTSEDSAVYFCARGMDYWGPGTSVTVSS
VL: DIKMTQSPSSMYASLGERVTITCKASQDINSHLSWFQQKPGKSPKTLIIRANRLVDGVPSRFSGSGSGQDYSLTISSPEYEEMGIYYCLQYDEFPFTFGGGTKLEIK
notes: as for B1
With B9, the binding result in test [1] and in test [2] was “binds” in each case.

B10: LP1-9M16 (antibody, V domains shown)
VH: EVQLQQSGPELVKPGASVKMSCKASGYTFTDYYMNWVKQSHGKSLEWIGRVNPNNGGSNYNQKFKGKATLTVDKSLSTAYMQLNSLTSEDSAVYYCASRNFDVWGAGTTVTVSS
VL: DIKMTQSPSSMYASLGERVTITCKASQDINSYLSWFQQKPGKSPKTLIYRANRLADGVPSRFSGSGSGQDYSLTISNLEYEDMGIYYCLQYDEFPLTFGAGTKLELK
notes: as for B1
Consider B10, for which the binding result in test [1] and in test [2] was “binds” throughout.

B11: LP1-1P13 (antibody, V domains shown)
VH: EVQLQQSGPELVKPGASVKISCKASGYSFTDYFMNWVKQSHGKSLEWIGRFNPFNGQTFYNQEFKGKATLTVDKSSSTAHMELRSLTSEDSAVYYCARRGRYDVYYVLDYWGQGTSVTVSS
VL: DIQMTQSPASLSASVGQTVIITCRTSENIYSNLAWYQQKQGKSPQLLVYAATNLADGVPSRFSGSGSGTQYYLKINSLQSEDFGSYYCQHFWGSTWTFGGGTKLDIK
notes: as for B1
For B11, the binding result in test [1] and in test [2] was “binds” each time.

B12: LP1-2I22 (antibody, V domains shown)
VH: EVQLQQSGPELVKPGASVKISCKASGYSFTGYFMNWVKQSHGKSLEWIGRFNPFNGQTFYNQEFKGKATLTVDKSSDTAHMELRSLTSEDSAVYYCARRGRYDVYYALDYWGQGTSVTVSS
VL: DIQMTQSPASLSASVGETVIITCRASENIYSNLAWYQQKQGKSPQLLVYGATNLADGVTSRFSGSGSGTQFSLKIDSLQSEDFGSYYCQHFWGTTWTFGGGTKLEIK
notes: as for B1
B12: the binding result in test [1] and in test [2] was “binds” each time.

B13: LP1-2E12 (antibody, V domains shown)
VH: DVQLQESGPGLVKPSQSLSLTCSVTGYSITSGYYWNWIRQFPGNKLEWMGSIGYDDTNHYNPSLKNRISITRDTSKNQFFLKLNSVTTEDTATYYCAGDYPFAFWGQGTLVTVSA
VL: DVVVTQTPLSLPVSFGDRVSISCRSSQSLANSYGNTYLSWYLHKPGQSPQLLIYGISNRFSGVPDRFSGSGSGTDFTLKISTIKPEDLGMYYCLQGTHQPLTFGAGTKLELK
notes: as for B1
For the molecule B13, the binding result in test [1] and in test [2] was “binds” in each case.

B14: LP1-9C3 (antibody, V domains shown)
VH: QVTLKESGPGILQPSQTLSLTCSFSGFSLSTSYMGVSWIRKPSGKGLEWLAHIFWDDDKRYNPSLKSRLTISKDTSSNQVFLMITSVETADTATYYCGGPYYPFTYWGQGTLVTVSA
VL: DVVVTQTPLSLPVSFGDQVSISCRSSQSLANSYGNTYLSWYLHKPGQSPQLLIYGISNRFSGVPDRFSGSGSGTDFTLKISTIKPEDLGIYYCLQATHQPWTFGGGTKLEIK
notes: as for B1
Take B14: the binding result in test [1] and in test [2] was “binds” throughout.

B15: LP1-3E20 (antibody, V domains shown)
VH: QVQLQQSGAELAKPGASVKMSCKASGYTFTSYWIHWVKQRPGQGLEWIGYINPSSGYAEYNQKFKVRATLTADKSSSTAYMQLSSLTSEDSAVYYCARESYYSFDYTMDYWGQGTSVTVSS
VL: DIKMTQSPSSMYASLGERVTITCKASQDINSYLSWFQQKPGKSPKTLIYRANRLVDGVPSRFSGSGSGQDYSLTISSLEYEDMGIYYCLQYDDLWTFGGGTKLEIK
notes: as for B1
Regarding B15, the binding result in test [1] and in test [2] was “binds” in each case.

B16: LP1-2I13 (antibody, V domains shown)
VH: EVQLVESGGGLVKPGGSRKLSCAASGFTFSDYGMHWVRQAPEKGLEWVAYISSGSSTIYYADTVKGRFTISRDNAKNTLFLQMTSLRSEDTAMYYCSRKGGFGDYEKSYAMDYWGQGTSVTVSS
VL: DIQMTQSPASLSASVGETVTITCRASENIYSYLVWYQQKQGKSPQLLVYNAKTLAEGVPSRFSGSGSGTQFSLKINSLQPEDFGSYYCQHHYGTWTFGGGIKLEIK
notes: as for B1
B16: the binding result in test [1] and in test [2] was “binds” in each case.
